Measured values taken from publication PMC6590835, “A unified mechanism for LLPS of ALS/FTLD-causing FUS as well as its modulation by ATP and oligonucleic acids”.

What was measured:
[1] = molecular target: FUS U-CTD (RGG2-ZnF-RGG3, ZnF unfolded) (UniProt P35637 371-526); experiment: NMR HSQC titration (CSD); no Zn; 1:10; Arg/Lys residues; 20 uM protein, 5 mM sodium phosphate pH 6.0, 1 mM MgCl2 (ZnCl2 added for full-length FUS and F-CTD), 25 C; settings: protein: recombinant, tags: none
FUS NTD (PLD+RGG1) [2] = molecular target: T1, FUS NTD (PLD+RGG1) (UniProt P35637 1-267); experiment: NMR HSQC titration; 1 mM MgCl2; saturated at 1:2; RGG1 residues; 20 uM protein, 5 mM sodium phosphate pH 6.0, 1 mM MgCl2 (ZnCl2 added for full-length FUS and F-CTD), 25 C; settings: protein: recombinant; tags: none; G4 (by CD in the phosphate buffer)
T1 sequence (P35637 1-267): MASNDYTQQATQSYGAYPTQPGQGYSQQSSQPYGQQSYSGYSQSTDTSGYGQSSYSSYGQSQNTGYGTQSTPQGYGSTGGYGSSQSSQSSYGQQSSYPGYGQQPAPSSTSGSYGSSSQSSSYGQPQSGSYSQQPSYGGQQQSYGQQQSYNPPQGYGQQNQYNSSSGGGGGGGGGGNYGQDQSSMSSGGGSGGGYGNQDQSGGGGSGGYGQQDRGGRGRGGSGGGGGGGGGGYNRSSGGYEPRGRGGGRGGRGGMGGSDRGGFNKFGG

FUS full-length [3] = molecular target: T2, FUS full-length (UniProt P35637 1-526); experiment: NMR HSQC competition (displaces ATP); 3 mM ATP; 0.3 mM TssDNA; 20 uM protein, 5 mM sodium phosphate pH 6.0, 1 mM MgCl2 (ZnCl2 added for full-length FUS and F-CTD), 25 C; settings: protein: recombinant; tags: none (His-tag removed by stop codon); G4 (by CD in the phosphate buffer)
T2 sequence (P35637 whole entry): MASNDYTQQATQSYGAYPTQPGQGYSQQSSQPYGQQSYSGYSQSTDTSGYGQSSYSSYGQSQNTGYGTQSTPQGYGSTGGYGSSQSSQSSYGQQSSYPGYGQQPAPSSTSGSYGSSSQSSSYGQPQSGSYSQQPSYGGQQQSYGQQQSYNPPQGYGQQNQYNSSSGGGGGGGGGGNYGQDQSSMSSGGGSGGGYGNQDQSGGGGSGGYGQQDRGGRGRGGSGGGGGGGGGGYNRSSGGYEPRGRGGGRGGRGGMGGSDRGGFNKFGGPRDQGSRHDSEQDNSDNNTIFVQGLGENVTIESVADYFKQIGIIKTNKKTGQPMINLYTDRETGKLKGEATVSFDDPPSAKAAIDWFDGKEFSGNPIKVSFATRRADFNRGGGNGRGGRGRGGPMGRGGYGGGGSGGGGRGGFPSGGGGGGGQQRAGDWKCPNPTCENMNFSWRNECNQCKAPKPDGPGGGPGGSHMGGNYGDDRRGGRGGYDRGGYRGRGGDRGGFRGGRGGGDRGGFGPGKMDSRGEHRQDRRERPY

[4] = molecular target: T3, FUS F-CTD (RGG2-ZnF-RGG3, ZnF folded) (UniProt P35637 371-526); experiment: NMR HSQC titration (line broadening); Zn2+; all peaks lost at 1:1; 20 uM protein, 5 mM sodium phosphate pH 6.0, 1 mM MgCl2 (ZnCl2 added for full-length FUS and F-CTD), 25 C; settings: protein: recombinant; tags: none; G4 (by CD in the phosphate buffer)
T3 sequence (P35637 371-526): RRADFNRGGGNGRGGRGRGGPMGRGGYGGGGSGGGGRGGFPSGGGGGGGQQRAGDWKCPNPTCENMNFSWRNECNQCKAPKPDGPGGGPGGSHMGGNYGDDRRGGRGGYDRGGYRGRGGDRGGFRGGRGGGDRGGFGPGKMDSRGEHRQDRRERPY

[5] = molecular target: T3, FUS F-CTD (RGG2-ZnF-RGG3, ZnF folded); experiment: NMR HSQC titration (line broadening); Zn2+; same pattern as TssDNA; 20 uM protein, 5 mM sodium phosphate pH 6.0, 1 mM MgCl2 (ZnCl2 added for full-length FUS and F-CTD), 25 C; settings: protein: recombinant; tags: none; unstructured (CD)
FUS full-length [6] = molecular target: T2, FUS full-length; experiment: NMR HSQC titration (line broadening); Zn2+; highly similar to TssDNA; 20 uM protein, 5 mM sodium phosphate pH 6.0, 1 mM MgCl2 (ZnCl2 added for full-length FUS and F-CTD), 25 C; settings: protein: recombinant; tags: none (His-tag removed by stop codon); unstructured (CD)
FUS NTD (PLD+RGG1) [7] = molecular target: T1, FUS NTD (PLD+RGG1); experiment: NMR HSQC titration; 1 mM MgCl2; same residues as TssDNA; 20 uM protein, 5 mM sodium phosphate pH 6.0, 1 mM MgCl2 (ZnCl2 added for full-length FUS and F-CTD), 25 C; settings: protein: recombinant; tags: none; unstructured (CD)

Measured: binding result

Chain of FUS U-CTD (RGG2-ZnF-RGG3, ZnF unfolded) (P35637 371-526): as above

B1: TssDNA (telomeric ssDNA, 24-mer) (structured_DNA)
DNA: TTAGGGTTAGGGTTAGGGTTAGGG
binds: [1]; G4 (by CD in the phosphate buffer) | FUS NTD (PLD+RGG1) [2] | FUS full-length [3] | [4]

B2: T24 (ssDNA)
DNA: TTTTTTTTTTTTTTTTTTTTTTTT
binds: [5] | [1]; unstructured (CD) | FUS full-length [6] | FUS NTD (PLD+RGG1) [7]
